# Values quoted from earlier work as cited in publication PMC3012698, “Characterization of a Novel Interaction between Bcl-2 Members Diva and Harakiri” (PLoS ONE, 2010).
# Like-named read-outs stand apart in the source and are kept apart here.
# Experiments:
# Mcl-1 [1] = biological target: Mcl-1 (UniProt Q07820)
# BFL-1 (Homo sapiens) [2] = biological target: BFL-1 (Homo sapiens) (UniProt Q16548)
# Bcl-w (Homo sapiens) = Bcl-w (Homo sapiens) (UniProt Q92843)
# Bcl-2 (Homo sapiens) [3] = biological target: Bcl-2 (Homo sapiens) (UniProt P10415)
# Chain of Bcl-2 (Homo sapiens) (P10415 whole entry): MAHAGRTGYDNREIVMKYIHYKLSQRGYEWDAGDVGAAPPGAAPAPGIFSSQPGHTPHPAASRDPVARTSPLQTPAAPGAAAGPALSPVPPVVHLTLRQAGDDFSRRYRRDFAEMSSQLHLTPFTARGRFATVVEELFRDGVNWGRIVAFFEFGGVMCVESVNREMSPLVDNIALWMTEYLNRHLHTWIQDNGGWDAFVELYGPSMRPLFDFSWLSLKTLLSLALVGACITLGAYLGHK
# BFL-1 (Homo sapiens) [4] = biological target: BFL-1 (Homo sapiens) (UniProt Q16548); remark: listed apart in the source
# Bcl-2 (Homo sapiens) [5] = biological target: Bcl-2 (Homo sapiens) (UniProt P10415); remark: listed apart in the source
# Mcl-1 [6] = biological target: Mcl-1 (UniProt Q07820); remark: listed apart in the source
# Chain of Bik BH3 (Q13323 51-75): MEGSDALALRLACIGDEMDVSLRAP
# Chain of BFL-1 (Homo sapiens) (Q16548 whole entry): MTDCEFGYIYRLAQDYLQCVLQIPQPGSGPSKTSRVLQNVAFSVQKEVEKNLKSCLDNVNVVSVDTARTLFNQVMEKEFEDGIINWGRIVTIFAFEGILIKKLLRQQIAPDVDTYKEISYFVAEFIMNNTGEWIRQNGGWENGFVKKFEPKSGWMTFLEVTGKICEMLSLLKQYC
# Chain of Mcl-1 (Q07820 whole entry): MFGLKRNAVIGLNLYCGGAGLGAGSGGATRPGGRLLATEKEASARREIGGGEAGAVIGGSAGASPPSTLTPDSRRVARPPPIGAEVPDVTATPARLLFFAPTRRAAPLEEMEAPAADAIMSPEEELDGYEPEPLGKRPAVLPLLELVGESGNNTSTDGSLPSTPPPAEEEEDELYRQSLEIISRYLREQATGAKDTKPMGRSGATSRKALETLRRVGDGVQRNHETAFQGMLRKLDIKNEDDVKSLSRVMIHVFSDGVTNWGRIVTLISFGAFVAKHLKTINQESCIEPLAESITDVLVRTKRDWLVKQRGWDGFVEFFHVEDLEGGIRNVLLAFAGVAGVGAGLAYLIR
# Chain of Noxa BH3 (Q13794 19-43): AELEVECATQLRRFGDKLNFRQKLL
# Chain of Bcl-w (Homo sapiens) (Q92843 2-193): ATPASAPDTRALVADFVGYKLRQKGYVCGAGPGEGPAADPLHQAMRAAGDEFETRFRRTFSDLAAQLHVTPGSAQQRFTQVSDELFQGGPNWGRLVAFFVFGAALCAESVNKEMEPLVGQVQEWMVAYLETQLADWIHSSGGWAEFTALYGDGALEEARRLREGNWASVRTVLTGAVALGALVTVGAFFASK
substance,measurement,setting,value
Bik BH3 (from UniProt Q13323),Kd,Mcl-1 [1],0.109 µM
same,Kd,BFL-1 (Homo sapiens) [2],> 2.5 µM
Harakiri BH3 (from UniProt O00198),Kd,Bcl-w (Homo sapiens),> 2.5 µM
same,Kd,Bcl-2 (Homo sapiens) [3],> 2.5 µM
same,Kd,BFL-1 (Homo sapiens) [4],> 2.5 µM
Noxa BH3 (from UniProt Q13794),Kd,Bcl-2 (Homo sapiens) [5],> 2.5 µM
same,Kd,Mcl-1 [6],0.025 µM
